Reference: patent publication US11994512B2, “Single-cell genomic methods to generate ex vivo cell systems that recapitulate in vivo biology with improved fidelity” (Massachusetts Institute of Technology, priority 2018, dated 2024)

B1: O88513 (protein, UniProt O88513 1-206, looked up)
chain: MNLSMKQKQEGAQENVKNSPVPRRTLKMIQPSADGSLVGRENELPKGLFKRKLWDDQLASQTSSCGPEANENKDVGDLTQEAFDLISKENPSSQYWKEVAEQRRKALYEALKENEKLHKEIEQKDSEIARLRKENKDLAEVAEHVQYMAEVIERLSNEPLDNFESPDSQEFDSEEEAVEYSELEDSGAGTCAEETVSSSTDARPCT
modifications: full-length
B2: P04184 (protein, UniProt P04184 1-233, looked up)
chain: MSYINLPTVLPSSPSKTRGQIQVILGPMFSGKSTELMRRVRRFQIAQYKCLVIKYAKDTRYSNSFSTHDRNTMDALPACMLRDVTQESLGVAVIGIDEGQFFPDIVDFCEMMANEGKTVIVAALDGTFQRKAFGSILNLVPLAESVVKLTAVCMECFREAAYTKRLGLEKEVEVIGGADKYHSVCRLCYFKKSSAQTAGSDNKNCLVLGQPGEALVVRKLFASQQVLQYNSAN
modifications: full-length
B3: O88451 (protein, UniProt O88451 1-316, looked up)
chain: MWLYLVALVGLWTLLRFFRERQVVSHLQDKYVFITGCDSGFGNLLARQLDRRGMRVLAACLTEKGAEQLRNKTSDRLETVILDVTKTESIVAATQWVKERVGNRGLWGLVNNAGICVFAINEWLKKEDFANILDVNLLGMIEVTLSMLPLVRKARGRVVNISSSMGRVSLCGGGYCISKYGVEAFSDSLRREISYFGVKVAIIEPGGFRTNVSNYERLSHSIEKLWDQTSSEVKEVYDKNFLDSYIKAIQSLTDTCSDDLSVVTDCMEHALTACHPRTRYSAGWDAKLFYLPLSYMPTFLVDAMLYWSSVKPAQAL
modifications: full-length
B4: P02772 (protein, UniProt P02772 1-605, looked up)
chain: MKWITPASLILLLHFAASKALHENEFGIASTLDSSQCVTEKNVLSIATITFTQFVPEATEEEVNKMTSDVLAAMKKNSGDGCLESQLSVFLDEICHETELSNKYGLSGCCSQSGVERHQCLLARKKTAPASVPPFQFPEPAESCKAHEENRAVFMNRFIYEVSRRNPFMYAPAILSLAAQYDKVVLACCKADNKEECFQTKRASIAKELREGSMLNEHVCSVIRKFGSRNLQATTIIKLSQKLTEANFTEIQKLALDVAHIHEECCQGNSLECLQDGEKVMTYICSQQNILSSKIAECCKLPMIQLGFCIIHAENGVKPEGLSLNPSQFLGDRNFAQFSSEEKIMFMASFLHEYSRTHPNLPVSVILRIAKTYQEILEKCSQSGNLPGCQDNLEEELQKHIEESQALSKQSCALYQTLGDYKLQNLFLIGYTRKAPQLTSAELIDLTGKMVSIASTCCQLSEEKWSGCGEGMADIFIGHLCIRNEASPVNSGISHCCNSSYSNRRLCITSFLRDETYAPPPFSEDKFIFHKDLCQAQGKALQTMKQELLINLVKQKPELTEEQLAAVTADFSGLLEKCCKAQDQEVCFTEEGPKLISKTRDALGV
modifications: full-length
B5: O88803 (protein, UniProt O88803 1-151, looked up)
chain: MIPTTILISAALLSSALAGPWANICASKSSNEIRTCDSYGCGQYSAQRTQRHHPGVDVLCSDGSVVYAPFTGKIVGQEKPYRNKNAINDGIRLSGRGFCVKIFYIKPIKYKGSIKKGEKLGTLLPLQKIYPGIQSHVHVENCDSSDPTAYL
modifications: full-length
B6: P03958 (protein, UniProt P03958 1-352, looked up)
chain: MAQTPAFNKPKVELHVHLDGAIKPETILYFGKKRGIALPADTVEELRNIIGMDKPLSLPGFLAKFDYYMPVIAGCREAIKRIAYEFVEMKAKEGVVYVEVRYSPHLLANSKVDPMPWNQTEGDVTPDDVVDLVNQGLQEGEQAFGIKVRSILCCMRHQPSWSLEVLELCKKYNQKTVVAMDLAGDETIEGSSLFPGHVEAYEGAVKNGIHRTVHAGEVGSPEVVREAVDILKTERVGHGYHTIEDEALYNRLLKENMHFEVCPWSSYLTGAWDPKTTHAVVRFKNDKANYSLNTDDPLIFKSTLDTDYQMTKKDMGFTEEEFKRLNINAAKSSFLPEEEKKELLERLYREYQ
modifications: full-length
B7: O88554 (protein, UniProt O88554 1-559, looked up)
chain: MAPRRQRSGSGRRVLNEAKKVDNGNKATEDDSPPGKKMRTCQRKGPMAGGKDADRTKDNRDSVKTLLLKGKAPVDPECAAKLGKAHVYCEGDDVYDVMLNQTNLQFNNNKYYLIQLLEDDAQRNFSVWMRWGRVGKTGQHSLVTCSGDLNKAKEIFQKKFLDKTKNNWEDRENFEKVPGKYDMLQMDYAASTQDESKTKEEETLKPESQLDLRVQELLKLICNVQTMEEMMIEMKYDTKRAPLGKLTVAQIKAGYQSLKKIEDCIRAGQHGRALVEACNEFYTRIPHDFGLSIPPVIRTEKELSDKVKLLEALGDIEIALKLVKSERQGLEHPLDQHYRNLHCALRPLDHESNEFKVISQYLQSTHAPTHKDYTMTLLDVFEVEKEGEKEAFREDLPNRMLLWHGSRLSNWVGILSHGLRVAPPEAPITGYMFGKGIYFADMSSKSANYCFASRLKNTGLLLLSEVALGQCNELLEANPKAQGLLRGKHSTKGMGKMAPSPAHFITLNGSTVPLGPASDTGILNPEGYTLNYNEFIVYSPNQVRMRYLLKIQFNFLQLW
modifications: full-length
B8: O88310 (protein, UniProt O88310 1-313, looked up)
chain: MTQLGFLLFIMVATRGCSAAEENLDTNRWGNSFFSSLPRSCKEIKQEHTKAQDGLYFLRTKNGVIYQTFCDMTTAGGGWTLVASVHENNMRGKCTVGDRWSSQQGNRADYPEGDGNWANYNTFGSAEAATSDDYKNPGYFDIQAENLGIWHVPNKSPLHNWRKSSLLRYRTFTGFLQHLGHNLFGLYKKYPVKYGEGKCWTDNGPALPVVYDFGDARKTASYYSPSGQREFTAGYVQFRVFNNERAASALCAGVRVTGCNTEHHCIGGGGFFPEGNPVQCGDFASFDWDGYGTHNGYSSSRKITEAAVLLFYR
modifications: full-length

system: intracellular proteome of ENR+CD and ENR organoids; test: LC-MS/MS TMT proteomics of ENR+CD versus ENR organoids; format: cell-based, C57BL/6 mice; settings: protein abundance, ENR+CD versus ENR organoids; aggregate of the four sample pairs
Text: Because PCs are highly secretory, protein-rich cells, Applicants sought to assess the total intracellular proteome between conditions through liquid chromatography mass spectrometry (LC-MS/MS)-based proteomics. Applicants quantified relative protein abundance across eight samples using isobaric mass tag labeling from four ENR and four ENR+CD samples (M1-1 through M2-2, first digit denotes biological donor, second digit denotes technical replicate) (FIG. 3A). Samples were processed and analyzed in a single 10-plex by LC-MS/MS (FIG. 9A).
To affirm the reproducibility of the associated proteins in the ENR+CD-enriched proteome, Applicants performed relative quantification within differentiation sets.
Mass spectrometry proteomics sample preparation, sequencing, and quantification. Organoid cell pellets were isolated from Matrigel with mechanical dissociation and washed (cold PBS 5X) to remove residual extracellular protein. Proteins were extracted from cell pellets with 8 M urea (Sigma), reduced with 5 mM DTT (Thermo Fisher Pierce) for 45 minutes, alkylated with 10 mM IAA (Sigma) for 45 minutes in the dark, and double digested with both Lysyl Endopeptidase “LysC” (Wako) and trypsin (Promega) overnight at RT. A small aliquot of cellular lysate was removed from each sample for protein quantification via the Pierce™ BCA Protein Assay Kit (Pierce). After proteolytic digestion, the samples were quenched using formic acid to a final concentration of 1.0% and subsequently desalted on 10 mg OASIS HLB solid phase columns (Waters).
The peptides were labeled with TMT-10 isobaric mass tag reagent according to manufacturer's instructions (ThermoFisher Scientific). The peptides were labeled at a 1:8 ratio of peptide to TMT reagent, followed by 1-hour incubation at RT with bench top shaking at 850 rpm. After incubation, a […] of labeled tryptic peptide was removed from each labeled condition, desalted with C18 stage tips, and analyzed via LC-MS/MS using a Thermo Fisher Q Exactive Plus Hybrid Mass Spectrometer (QE-Plus) coupled to a Thermo Fisher EASY-nLC 1000 liquid chromatograph to ensure isobaric label incorporation >95%. An additional 1.0 μg of labeled tryptic peptide was removed from each channel, mixed together, desalted on a C18 stage tip, and analyzed via LC-MS to ensure equal relative protein loads. During these quality control steps, the labeled peptides were stored, unquenched at −80° C.

Row | Molecule | Average logFC
1 | B1 | −1.337
2 | B2 | −1.187
3 | B3 | −1.416
4 | B4 | −1.438
5 | B5 | 1.443
6 | B6 | 1.34
7 | B7 | −1.403
8 | B8 | 1.203

same assay, conditions: protein abundance, ENR+CD versus ENR organoids; replicate M1-1; log2 ratio

Row | Molecule | M1-1 Log2 Median Normalized
9 | B1 | −1.6
10 | B2 | −1.268
11 | B3 | −1.202
12 | B4 | −1.616
13 | B5 | 1.692
14 | B6 | 1.339
15 | B7 | −1.403
16 | B8 | 1.445

same assay, conditions: protein abundance, ENR+CD versus ENR organoids; replicate M1-2; log2 ratio

Row | Molecule | M1-2 Log2 Median Normalized
17 | B1 | −1.306
18 | B2 | −1.033
19 | B3 | −1.565
20 | B4 | −1.696
21 | B5 | 1.063
22 | B6 | 0.074
23 | B7 | −0.933
24 | B8 | 1.239

same assay, conditions: protein abundance, ENR+CD versus ENR organoids; replicate M2-1; log2 ratio

Row | Molecule | M2-1 Log2 Median Normalized
25 | B1 | −0.8435
26 | B2 | −1.0175
27 | B3 | −2.2355
28 | B4 | −1.1235
29 | B5 | 1.4425
30 | B6 | 1.5985
31 | B7 | −1.4925
32 | B8 | 0.9545

same assay, conditions: protein abundance, ENR+CD versus ENR organoids; replicate M2-2; log2 ratio

Row | Molecule | M2-2 Log2 Median Normalized
33 | B1 | −1.599
34 | B2 | −1.428
35 | B3 | −0.662
36 | B4 | −1.316
37 | B5 | 1.463
38 | B6 | 1.501
39 | B7 | −1.465
40 | B8 | 1.175

same assay, conditions: up = enriched in ENR+CD, down = enriched in ENR; FDR<0.05 and log fold change cut-off

Row | Molecule | change
41 | B1 | down
42 | B2 | down
43 | B3 | down
44 | B4 | down
45 | B5 | up
46 | B6 | up
47 | B7 | down
48 | B8 | up
